Measured values as given in PMC3246092 (Gene, 2011).

T1: Rrn7p subunit of recombinant core factor, N-terminal 6-his (S. cerevisiae, UniProt P40992 1-514)
T1 sequence (looked up): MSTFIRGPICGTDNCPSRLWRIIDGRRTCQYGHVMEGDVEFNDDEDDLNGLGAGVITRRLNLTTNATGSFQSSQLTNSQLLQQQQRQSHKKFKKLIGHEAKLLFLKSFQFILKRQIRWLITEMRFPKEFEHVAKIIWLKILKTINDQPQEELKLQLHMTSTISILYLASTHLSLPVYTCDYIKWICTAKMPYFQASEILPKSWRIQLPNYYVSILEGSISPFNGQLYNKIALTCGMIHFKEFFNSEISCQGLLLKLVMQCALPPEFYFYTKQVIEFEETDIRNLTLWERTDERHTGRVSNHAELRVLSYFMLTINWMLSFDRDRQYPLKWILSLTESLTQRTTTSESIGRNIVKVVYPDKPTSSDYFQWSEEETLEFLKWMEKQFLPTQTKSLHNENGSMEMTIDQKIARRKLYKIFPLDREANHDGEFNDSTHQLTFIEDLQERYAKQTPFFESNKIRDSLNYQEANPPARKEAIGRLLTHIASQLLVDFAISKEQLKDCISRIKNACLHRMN

B1: Rrn11p subunit of recombinant core factor, N-terminal 6-his (natural protein, S. cerevisiae, UniProt Q04712 1-507, looked up)
chain: MFEVPITLTNRKFAQRRKLKYQYINYISRRFDRISKKSTTTDSLPTPENSAAENNDEEEGQNSEAGTYRRSVLQQKKRRRERHWRSVVGEIYSTTESETDSQEEETEEGGEHDTGIDKEDSDEERKFWKKYEKPEKSFEIWRTVSSQNKQPINKQKMTYHNFKKIEKIPLRKMEIPLLHCTKENKLYFQSISRGLEPLKTSTSEVRNYRTRHIVTLTDLLHLNVSRHNWSLAYKIFATLIRIPGVQIKSLWGIGVEILDNLSNSSSGLDFLQWMCQIYSSKSRFVQNINYRSIVPPFQTGSRTHTAKFAITYLWSSLINCQKSMEPSSNIIDKPFDTENDLLQELIDKISEWVLTPPFMEDAEVWFIYASCHLLKADTLSRQFVNDNKNNDLIGLDRDIKINQVIKHIHYVRTFLKICLDKGGFAVPSRLIENQLKSFESRLYGEAQDIQERDVANVYDSIDNSSVENSFGDVYETNAEFLDTQLMDLSPEDNGLDEMHYSDEDSSE

Experiments:
[1] = biological target: T1, Rrn7p subunit of recombinant core …; test: quantification of Sypro Ruby stained SDS-PAGE bands of the purified complex
[2] = biological target: B1; test: as above

| stoichiometry N [1] | stoichiometry N [2] | Binder |
| --- | --- | --- |
| 1 | 1 | Rrn6p subunit of recombinant core factor (natural protein, S. cerevisiae, UniProt P32786 1-894, looked up) MSEGQIPSSDVLGSQLGVGVQGASLYCPQENYTTKKQEKPQWLRPVDDTLAEDALDLHIVVKSLLCDTAIRYISDDKVLQESDADDDLITSDIDEDTDNQGDTSIVVNPVIPVVPKDVHFFKKVDVGNDSMFGVNCDTPVSFQDYIPSDLLRNLDDTLQESTNSSRPMQDAFFWDPTVANRLDSQYIQTASDLRNYRDGTEIIAYASGKTGSVLNIAVLTRQNTLHLNRHNNVTSIELHSPIKSIKIPGASESIGRRSNLVGIITENSFQIFRIESVHSRSCDVMVSSSEPLYFVEIDDLQVVDFAFNPWDLQQFAIIDIKGNWSIGRIPKNFNNNNKRKLQLIDNLHGTIFDPEELSSWKRIEWFSHFQKILVFDRSKMIEIDFMNNWQTEVVQAKAWSNIRDYKRIDDKNGILLTSREIIIVGASESNDPVRRISWKHDLDPDDTTLRITVQKVKKPDHILLVAFVYSMRHKRIYMHVFSHRKANLFQSLGCSTVLEIPGGTPTGIETILTLDHIDDESRREEDADENFELVVDFLVKLRNSSEVYYYALSNTQNSEPNKQETPIIVDHPEWASLFNNADEREKESIGALVSQIKLKERERISRVQNLIEHENSHDEDKYLQDLGYRLSIATNELLESWQKTKDESILSGSLSHSKLKNLLENSDSFASIPEFSSLLDQFFQYYQDQDVTFIGFEKLLHLFLHEDVPGLDIFYNKLLQCWVLVSPQAELLTKEIVKDIIWSLARLEKPSLFEPIQNEISRSLSGPYQDIISSWDMDDINEEDESNEFNFDSQFSAPFNGRPPFNLNSQSQIPTIKSSQSSGLARRKRILKTQSQKATPLSQSTQNLSVLPDSMTPAFTLMQPPSSQISFVNDSQPRNSQKAKKKKKRIRGFG |
| 1 |  | B1 |
